Measured values published in US20240002533A1 (Merck Sharp & Dohme, published 2024).

T1: human arginase 1, trimeric (full-length untagged hArg1 expressed in E. coli) (human, UniProt P05089 1-322)
T1 sequence: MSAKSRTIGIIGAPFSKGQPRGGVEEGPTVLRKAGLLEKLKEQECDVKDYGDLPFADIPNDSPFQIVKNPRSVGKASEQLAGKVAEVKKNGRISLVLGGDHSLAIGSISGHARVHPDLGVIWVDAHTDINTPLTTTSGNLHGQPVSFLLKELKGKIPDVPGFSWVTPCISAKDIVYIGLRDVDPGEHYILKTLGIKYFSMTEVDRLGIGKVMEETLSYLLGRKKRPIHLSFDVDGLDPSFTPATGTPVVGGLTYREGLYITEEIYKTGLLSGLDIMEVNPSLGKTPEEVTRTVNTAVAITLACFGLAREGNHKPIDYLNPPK


Molecular target: T1, human arginase 1, trimeric (full-length …)
Assay: cell-based or functional assay

| IC50 (% inhibition of hArg1 activity, arginine to ornithine by LC-MS) [nM] | Binder |
| --- | --- |
| 3.3 | Antibody mAb1 (chimeric: human VH1 and VL on a mouse IgG2a/kappa constant domain backbone) (antibody) heavy: QVQLVQSGAEVKKPGASVKVSCKASGYTFTNYGISWVRQAPGQGLEWMGWISAYNGNTNYAQKLQGRVTMTTDTSTSTAYMELRSLRSDDTAVYYCAREGAYGYRSPYHNWFDPWGQGTLVTVSSAKTTAPSVYPLAPVCGDTTGSSVTLGCLVKGYFPEPVTLTWNSGSLSSGVHTFPAVLQSDLYTLSSSVTVTSSTWPSQSITCNVAHPASSTKVDKKIEPRGPTIKPCPPCKCPAPNLLGGPSVFIFPPKIKDVLMISLSPIVTCVVVDVSEDDPDVQISWFVNNVEVHTAQTQTHREDYNSTLRVVSALPIQHQDWMSGKEFKCKVNNKDLPAPIERTISKPKGSVRAPQVYVLPPPEEEMTKKQVTLTCMVTDFMPEDIYVEWTNNGKTELNYKNTEPVLDSDGSYFMYSKLRVEKKNWVERNSYSCSVVHEGLHNHHTTKSFSRTPGK light: EIVMTQSPATLSLSPGERATLSCRASQSVSSYLAWYQQKPGQAPRLLIYDASNRATGIPARFSGSGSGTDFTLTISSLEPEDFAVYYCQQHSLLPRTFGGGTKVEIKRTVAAPTVSIFPPSSEQLTSGGASVVCFLNNFYPKDINVKWKIDGSERQNGVLNSWTDQDSKDSTYSMSSTLTLTKDEYERHNSYTCEATHKTSTSPIVKSFNRNEC |
| 5.3 | Antibody mAb2 (chimeric: human VH1 and VL on a mouse IgG1 D265A/kappa constant domain backbone) (antibody) heavy: QVQLVQSGAEVKKPGASVKVSCKASGYTFTNYGISWVRQAPGQGLEWMGWISAYNGNTNYAQKLQGRVTMTTDTSTSTAYMELRSLRSDDTAVYYCAREGAYGYRSPYHNWFDPWGQGTLVTVSSAKTTPPSVYPLAPGSAAQTNSMVTLGCLVKGYFPEPVTVTWNSGSLSSGVHTFPAVLQSDLYTLSSSVTVPSSTWPSETVTCNVAHPASSTKVDKKIVPRDCGCKPCICTVPEVSSVFIFPPKPKDVLTITLTPKVTCVVVAISKDDPEVQFSWFVDDVEVHTAQTQPREEQFNSTFRSVSELPIMHQDWLNGKEFKCRVNSAAFPAPIEKTISKTKGRPKAPQVYTIPPPKEQMAKDKVSLTCMITDFFPEDITVEWQWNGQPAENYKNTQPIMDTDGSYFVYSKLNVQKSNWEAGNTFTCSVLHEGLHNHHTEKSLSHSPGK light: EIVMTQSPATLSLSPGERATLSCRASQSVSSYLAWYQQKPGQAPRLLIYDASNRATGIPARFSGSGSGTDFTLTISSLEPEDFAVYYCQQHSLLPRTFGGGTKVEIKRTVAAPTVSIFPPSSEQLTSGGASVVCFLNNFYPKDINVKWKIDGSERQNGVLNSWTDQDSKDSTYSMSSTLTLTKDEYERHNSYTCEATHKTSTSPIVKSFNRNEC |
